Test results published in paper PMC1800861, “Characterization of an Oct1 orthologue in the channel catfish, Ictalurus punctatus: A negative regulator of immunoglobulin gene transcription?”.

What was measured:
[1] = molecular target: T1, Oct2β (in vitro translated) (Ictalurus punctatus (channel catfish), UniProt O13007 1-480); assay: EMSA; 1x Promega binding buffer (from 5x, composition not given), 30 min preincubation at room temperature then 30 min with probe; 5% native PAGE at 4°C; 100x competitor; pH and salt not given; extract EMSA as in Ross et al; details: protein: ivt; label: 32P-dATP Klenow fill-in; 5' overhang 4 nt on both strands as annealed; labeled by Klenow fill-in
T1 sequence: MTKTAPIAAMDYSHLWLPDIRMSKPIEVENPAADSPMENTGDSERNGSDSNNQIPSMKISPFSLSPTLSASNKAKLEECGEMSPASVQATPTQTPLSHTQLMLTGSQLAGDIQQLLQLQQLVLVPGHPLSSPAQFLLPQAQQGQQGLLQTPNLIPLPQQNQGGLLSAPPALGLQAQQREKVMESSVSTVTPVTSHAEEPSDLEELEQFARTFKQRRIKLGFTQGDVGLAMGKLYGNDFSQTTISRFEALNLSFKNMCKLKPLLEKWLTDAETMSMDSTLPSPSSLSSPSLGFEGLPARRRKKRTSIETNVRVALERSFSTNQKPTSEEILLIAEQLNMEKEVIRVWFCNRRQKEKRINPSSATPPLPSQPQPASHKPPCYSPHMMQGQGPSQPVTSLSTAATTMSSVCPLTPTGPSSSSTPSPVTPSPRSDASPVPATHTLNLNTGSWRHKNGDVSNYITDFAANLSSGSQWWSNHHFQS

[2] = molecular target: T2, Oct1 (in vitro translated) (Ictalurus punctatus (channel catfish; …, UniProt O57602 1-623); assay: EMSA; cold self competitor inhibits; anti-Oct1 abolishes shift; 1x Promega binding buffer (from 5x, composition not given), 30 min preincubation at room temperature then 30 min with probe; 5% native PAGE at 4°C; 100x competitor; pH and salt not given; extract EMSA as in Ross et al; details: protein: ivt; label: 32P-dATP Klenow fill-in; 5' overhang 4 nt on both strands as annealed; labeled by Klenow fill-in
T2 sequence: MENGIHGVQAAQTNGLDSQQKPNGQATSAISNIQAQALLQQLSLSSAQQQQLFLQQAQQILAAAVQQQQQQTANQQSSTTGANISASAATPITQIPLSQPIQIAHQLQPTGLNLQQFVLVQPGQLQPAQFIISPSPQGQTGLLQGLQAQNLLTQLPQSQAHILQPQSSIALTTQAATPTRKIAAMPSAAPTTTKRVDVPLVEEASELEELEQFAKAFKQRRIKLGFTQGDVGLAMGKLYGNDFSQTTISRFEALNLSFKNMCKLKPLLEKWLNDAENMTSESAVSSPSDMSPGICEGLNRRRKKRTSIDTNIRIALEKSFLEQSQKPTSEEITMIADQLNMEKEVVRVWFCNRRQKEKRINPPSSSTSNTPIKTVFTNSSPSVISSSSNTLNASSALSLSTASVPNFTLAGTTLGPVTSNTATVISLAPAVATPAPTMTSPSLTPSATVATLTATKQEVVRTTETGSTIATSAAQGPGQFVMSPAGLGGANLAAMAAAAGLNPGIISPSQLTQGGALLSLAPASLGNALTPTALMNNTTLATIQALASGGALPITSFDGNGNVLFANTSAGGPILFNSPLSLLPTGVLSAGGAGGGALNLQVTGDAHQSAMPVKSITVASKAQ

B1: Eμ3' core enhancer first octamer (G-2110/G-2111) (dsDNA)
DNA 1: GCAAAACACTGCATGTAAATAGTCTAAT
DNA 2: CATTATTAGACTATTTACATGCAGTGTT
Question: Does B1 bind [1]?
Answer: Result: binds

Question: Does B1 bind [2]?
Answer: Result: binds
